Measured values from publication PMC11333002, “Molecular dynamics simulations reveal how vinculin refolds partially unfolded talin rod helices to stabilize them against mechanical force” (PLOS Computational Biology, 2024).
Where two headings read alike, the source gives them in different places.

Legend:
[1] = target: mouse talin1 R1 VBS (H4) peptide, fluorescein labelled (mouse); experiment: fluorescence polarisation; fluorescein-labelled VBS peptide at 700 nM, 2-fold serial dilution of protein, triplicate, 25°C; one-site total binding equation
Sequence of mouse talin1 R1 VBS (H4) peptide, fluorescein labelled (mouse) (peptide, as listed by the source): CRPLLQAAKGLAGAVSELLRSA

[2] = tested on: talin; conditions: cited from earlier work
Source text: (Fig 1H). However, how the complexation occurs when the VBS structure is destabilized by force remains unclear. ... || Constant velocity SMD is known to overestimate the unfolding force magnitude, and the measured unfolding forces were approximately one order of magnitude higher when compared to the force required experimentally for vinculin dissociation from talin (above 25 pN). Therefore, to reach unfolding force magnitude within the force range seen in previous studies (<100 pN), we performed microsecond-scale constant force SMD simulations. Using constant force at 70 pN, we achieved limited but noticeable VBS destabilization in the vinculin-bound state within 3 μs. Increasing the fo ... || To assess the thermodynamic parameters of recognition and binding of partially unfolded talin VBS by vinculin, we used umbrella sampling and the weighted histogram analysis method to calculate the vinculin–VBS binding energy profiles. We used two different starting states of VBS: 1) fully α-helical VBS and 2) partially unfolded VBS, stretched by 1.5 nm. This distance was chosen to be consistent with the previously observed contractions upon vinculin binding to R3 (∼1.5–2.5 nm per VBS, depending on force magnitude). The whole process of vinculin–VBS binding was divided into three ... || (+ 2 further places)

[3] = tested on: Vinculin-null mouse embryonic fibroblasts (MEF); experiment: Adhesion localization, vinculin/talin intensity (immunostaining, confocal); assay type: cell-based; conditions: full-length vinculin; vs WT vinculin; n = 22 (WT) and 23 (Q19S) cells
Method: Vinculin-null mouse embryonic fibroblasts (MEF) were a kind gift from Prof. Carsten Grashoff (University of Münster) and have been previously described. Cells were maintained at 10–80% confluency in high-glucose Dulbecco’s modified Eagle medium with GlutaMax (10566016, Thermo Fisher Scientific) supplemented with 10% fetal bovine serum (Gibco) in a humidified 37°C, 5% CO2 incubator. For FRAP experiments, Vin-/- MEF cells were adapted to FluoroBrite DMEM medium (Thermo Fisher Scientific) supplemented with 10% fetal bovine serum and 1% GlutaMax for a minimum of 48 hours.
mEmerald-Vinculin-N-21 was a gift from Michael Davidson (Addgene plasmid # 54304; http://n2t.net/addgene:54304; RRID:Addgene_54304). To restore the wildtype human vinculin sequence, L234V backmutation was introduced to all vinculin constructs. Q19S mutation was introduced by GenScript cloning service. All plasmid constructs were authenticated by sequencing. Vin-/- MEF cells were transfected with the Neon transfection system (Thermo Fisher Scientific). […]
For adhesion intensity analysis, immunostained cells were imaged using a Nikon Eclipse Ti2-E inverted microscope equipped with A1R+ laser scanning confocal unit (Nikon) and Nikon CFI Plan Apo IR SR 60x WI (NA 1.27) objective. […] Talin and vinculin intensities in adhesion sites were analyzed using Fiji distribution of ImageJ 1.53t. […]

Molecule: VD1 domain of mouse vinculin, Q19S (domain or fragment)
- fold higher affinity than WT mVD1 [1]: 1.75 fold

B1: vinculin: vinculin in cited magnetic tweezers experiments with talin (protein, UniProt P18206 1-1134, looked up)
Vinculin: MPVFHTRTIESILEPVAQQISHLVIMHEEGEVDGKAIPDLTAPVAAVQAAVSNLVRVGKETVQTTEDQILKRDMPPAFIKVENACTKLVQAAQMLQSDPYSVPARDYLIDGSRGILSGTSDLLLTFDEAEVRKIIRVCKGILEYLTVAEVVETMEDLVTYTKNLGPGMTKMAKMIDERQQELTHQEHRVMLVNSMNTVKELLPVLISAMKIFVTTKNSKNQGIEEALKNRNFTVEKMSAEINEIIRVLQLTSWDEDAWASKDTEAMKRALASIDSKLNQAKGWLRDPSASPGDAGEQAIRQILDEAGKVGELCAGKERREILGTCKMLGQMTDQVADLRARGQGSSPVAMQKAQQVSQGLDVLTAKVENAARKLEAMTNSKQSIAKKIDAAQNWLADPNGGPEGEEQIRGALAEARKIAELCDDPKERDDILRSLGEISALTSKLADLRRQGKGDSPEARALAKQVATALQNLQTKTNRAVANSRPAKAAVHLEGKIEQAQRWIDNPTVDDRGVGQAAIRGLVAEGHRLANVMMGPYRQDLLAKCDRVDQLTAQLADLAARGEGESPQARALASQLQDSLKDLKARMQEAMTQEVSDVFSDTTTPIKLLAVAATAPPDAPNREEVFDERAANFENHSGKLGATAEKAAAVGTANKSTVEGIQASVKTARELTPQVVSAARILLRNPGNQAAYEHFETMKNQWIDNVEKMTGLVDEAIDTKSLLDASEEAIKKDLDKCKVAMANIQPQMLVAGATSIARRANRILLVAKREVENSEDPKFREAVKAASDELSKTISPMVMDAKAVAGNISDPGLQKSFLDSGYRILGAVAKVREAFQPQEPDFPPPPPDLEQLRLTDELAPPKPPLPEGEVPPPRPPPPEEKDEEFPEQKAGEVINQPMMMAARQLHDEARKWSSKPGIPAAEVGIGVVAEADAADAAGFPVPPDMEDDYEPELLLMPSNQPVNQPILAAAQSLHREATKWSSKGNDIIAAAKRMALLMAEMSRLVRGGSGTKRALIQCAKDIAKASDEVTRLAKEVAKQCTDKRIRTNLLQVCERIPTISTQLKILSTVKATMLGRTNISDEESEQATEMLVHNAQNLMQSVKETVREAEAASIKIRTDAGFTLRWVRKTPWYQ
- vinculin–VBS binding above 15 pN ([2]; above 15 pN, ref [26]): fast transition
- increase in talin end-to-end distance on vinculin dissociation ([2]; above 25 pN, ref [22],[26]): ~3 nm
- contraction per VBS on vinculin binding to R3 ([2]; depending on force magnitude, ref [26]): 1.5–2.5 nm
- time of vinculin–VBS binding under lower forces ([2]; lower forces, ref [26]): within hundreds of milliseconds
- force for vinculin dissociation from talin ([2]; ref [22],[26]): above 25 pN
- reduction in talin end-to-end distance on vinculin binding ([2]; talin R3, 9 pN, ref [26]): ~ 1.5 nm
- reduction in talin end-to-end distance on vinculin binding ([2]; talin R3, 20 pN, ref [26]): ~ 2.5 nm

B2: Q19S vinculin: full-length mEmerald-vinculin with Q19S mutation (protein, UniProt Q64727 1-1066, looked up, variant Q19S)
chain: MPVFHTRTIESILEPVAQSISHLVIMHEEGEVDGKAIPDLTAPVAAVQAAVSNLVRVGKETVQTTEDQILKRDMPPAFIKVENACTKLVQAAQMLQSDPYSVPARDYLIDGSRGILSGTSDLLLTFDEAEVRKIIRVCKGILEYLTVAEVVETMEDLVTYTKNLGPGMTKMAKMIDERQQELTHQEHRVMLVNSMNTVKELLPVLISAMKIFVTTKNSKNQGIEEALKNRNFTVEKMSAEINEIIRVLQLTSWDEDAWASKDTEAMKRALASIDSKLNQAKGWLRDPNASPGDAGEQAIRQILDEAGKVGELCAGKERREILGTCKMLGQMTDQVADLRARGQGASPVAMQKAQQVSQGLDVLTAKVENAARKLEAMTNSKQSIAKKIDAAQNWLADPNGGPEGEEQIRGALAEARKIAELCDDPKERDDILRSLGEIAALTSKLGDLRRQGKGDSPEARALAKQVATALQNLQTKTNRAVANSRPAKAAVHLEGKIEQAQRWIDNPTVDDRGVGQAAIRGLVAEGHRLANVMMGPYRQDLLAKCDRVDQLTAQLADLAARGEGESPQARALASQLQDSLKDLKAQMQEAMTQEVSDVFSDTTTPIKLLAVAATAPPDAPNREEVFDERAANFENHSGRLGATAEKAAAVGTANKSTVEGIQASVKTARELTPQVISAARILLRNPGNQAAYEHFETMKNQWIDNVEKMTGLVDEAIDTKSLLDASEEAIKKDLDKCKVAMANIQPQMLVAGATSIARRANRILLVAKREVENSEDPKFREAVKAASDELSKTISPMVMDAKAVAGNISDPGLQKSFLDSGYRILGAVAKVREAFQPQEPDFPPPPPDLEQLRLTDELAPPKPPLPEGEVPPPRPPPPEEKDEEFPEQKAGEVINQPMMMAARQLHDEARKWSSKGNDIIAAAKRMALLMAEMSRLVRGGSGTKRALIQCAKDIAKASDEVTRLAKEVAKQCTDKRIRTNLLQVCERIPTISTQLKILSTVKATMLGRTNISDEESEQATEMLVHNAQNLMQSVKETVREAEAASIKIRTDAGFTLRWVRKTPWYQ
modifications: full-length mEmerald
notes: full-length mEmerald-vinculin with Q19S mutation
- incorporation into talin-rich focal adhesions [3]: incorporated into talin-rich focal adhesions similarly
